From article PMC6755802 (The Journal of Biological Chemistry, 2019)

T1: Super-2/IL-2Rβ binary complex (human, UniProt P60568;P14784)
T1 construct: human IL-2Rβ ectodomain, amino acids 1-214; also called stabilized Super-2/IL-2Rβ binary complex; source: baculovirus expression system, purified (nickel chromatography, SEC)
T1 chain 1: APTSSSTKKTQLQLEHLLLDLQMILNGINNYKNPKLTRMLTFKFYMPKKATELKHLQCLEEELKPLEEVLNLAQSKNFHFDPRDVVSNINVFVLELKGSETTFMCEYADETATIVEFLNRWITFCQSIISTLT
T1 chain 2: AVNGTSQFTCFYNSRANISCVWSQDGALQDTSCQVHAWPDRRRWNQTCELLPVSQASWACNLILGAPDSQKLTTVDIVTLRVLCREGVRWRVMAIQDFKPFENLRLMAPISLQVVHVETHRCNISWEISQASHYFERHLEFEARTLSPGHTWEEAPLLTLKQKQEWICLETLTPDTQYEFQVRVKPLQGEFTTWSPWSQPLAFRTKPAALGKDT

B1: affinity-matured IL-2 binary complex stapler scFv, yeast-displayed (scFv, V domains shown)
VH: QVQLQQSGPGLVKPSQTLSLTCAISGDSVSSNSATWNWIRQSPSRGLEWLGRTYYRSKWYDDYAVSVKSRITINPDTSKNQFSLQLNSVTPEDTAVYYCARATYGTYDYWGQGTLVTVSS
VL: NFMLTQPHSASESPGKTVTISCTGSRGSIASNYVQWYQQRPGSAPTTVIYEDNQRPSGVPDRFSGSIDSSSNSASLTISGLKTEDEADYYCQSYDQNYHAVFGGGTQLTVL
notes: as the scFv of m6 with changes in the VH and VL CDR3 regions; also called amIL-2B stapler; amIL-2BC stapler; source: site-directed mutagenic library of IL-2B stapler
B2: affinity-matured IL-2 binary complex stapler scFv, recombinantly expressed (scFv, V domains shown)
VH: B1 VH
VL: B1 VL
notes: VH of amIL-2B stapler; as the VH of m8 with changes in CDR3; 15-amino acid (Gly4Ser)3 linker; VL of amIL-2B stapler; as the VL of m8 with changes in CDR3; Biotinylated for immobilisation in SPR; also called amIL-2B stapler; amIL-2BC stapler; source: baculovirus system (pAcGP67A), purified (nickel chromatography, SEC)

Columns and labels:
[1] = target: T2, IL-2/IL-2Rβ binary complex (Homo sapiens, UniProt P60568;P14784); assay: flow cytometry on cells; scFv displayed on yeast; 1 μM of the indicated biotinylated complex components in PBE buffer, 2 h at room temperature; detection with 50 nM SA-647; details: one partner purified
T2 construct: human IL-2, amino acids 1-133; human IL-2Rβ ectodomain, amino acids 1-214; also called IL-2 BC; IL-2 binary complex; source: baculovirus expression system, purified (nickel chromatography, SEC)

[2] = target: T3, IL-2, biotinylated (for staining of yeast) (Homo sapiens, UniProt P60568, biotin (site not stated)); assay: as above; details: one partner purified
T3 construct: human IL-2, amino acids 1-133; also called interleukin-2; the cytokine; source: baculovirus expression system, purified (nickel chromatography, SEC)

[3] = target: T4, IL-2Rβ ectodomain, biotinylated (for staining of yeast) (Homo sapiens, UniProt P14784, biotin (site not stated)); assay: as above; details: one partner purified
T4 construct: human IL-2Rβ ectodomain, amino acids 1-214; also called the receptor; source: baculovirus expression system, purified (nickel chromatography, SEC)

[4] = target: T1, Super-2/IL-2Rβ binary complex; assay: SPR; biotinylated scFv immobilised on Biacore SA chip at low density; analytes flowed 60 s; complexes pre-incubated 30 min at room temperature; 25 °C; HBS-P+ with 0.2% BSA; KD from equilibrium titration, 1:1 model; in Fig. 1D all proteins at 60 μM; details: both partners purified

Row | Binder | binding result [1] | binding result [2] | binding result [3] | Kd [4] [nM]
1 | B1 | binds | no binding (tested: 1 μM) | no binding (tested: 1 μM) | 
2 | B2 |  |  |  | 15
